Experimental data published in patent US20250154256A1 (AUGUSTA UNIVERSITY RESEARCH INSTITUTE, published 2025).
Where two headings read alike, the source gives them in different places.

T1: mouse PD-1 (mouse, UniProt Q02242 25-167, limits assumed)
T1 construct: Analyte in solution in the Biacore runs
T1 sequence: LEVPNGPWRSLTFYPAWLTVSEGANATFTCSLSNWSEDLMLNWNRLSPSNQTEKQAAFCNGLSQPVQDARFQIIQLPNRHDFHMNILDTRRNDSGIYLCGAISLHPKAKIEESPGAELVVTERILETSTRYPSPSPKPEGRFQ


Experiments:
human PD-1-Fc = target: T2, human PD-1-Fc (human, UniProt Q15116 25-170, limits assumed); test: ELISA, binding to human PD-1-Fc
T2 construct: ELISA antigen
T2 sequence (Q15116 25-170 limits assumed): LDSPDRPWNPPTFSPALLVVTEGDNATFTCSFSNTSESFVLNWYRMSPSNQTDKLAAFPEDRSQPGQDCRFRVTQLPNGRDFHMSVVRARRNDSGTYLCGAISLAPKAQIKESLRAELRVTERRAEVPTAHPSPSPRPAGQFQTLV

human PD-1 [1] = target: T3, human PD-1 (human, UniProt Q15116 25-167, limits assumed); test: SPR (Biacore), antibody as ligand, PD-1 as analyte
T3 construct: Analyte in solution in the Biacore runs; also called programmed cell death protein 1
T3 sequence (Q15116 25-167 limits assumed): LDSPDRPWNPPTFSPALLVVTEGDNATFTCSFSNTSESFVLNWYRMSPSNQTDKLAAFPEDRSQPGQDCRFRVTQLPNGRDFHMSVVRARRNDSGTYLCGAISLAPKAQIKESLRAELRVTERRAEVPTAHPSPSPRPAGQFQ

mouse PD-1 [2] = target: T1, mouse PD-1; test: SPR (Biacore), antibody as ligand, PD-1 as analyte
human PD-1 [3] = target: T3, human PD-1; test: SPR (Biacore), antibody as ligand, PD-1 as analyte; remark: listed apart in the source
human PD-1 [4] = target: T3, human PD-1; test: SPR (Biacore), antibody as ligand, PD-1 as analyte; remark: listed apart in the source
mouse PD-1 [5] = target: T1, mouse PD-1; test: SPR (Biacore), antibody as ligand, PD-1 as analyte; remark: listed apart in the source

EC50 (read off the curve) (human PD-1-Fc) [µg/mL] | Ka (human PD-1 [1]) [M⁻¹] | Kd (human PD-1 [1]) [µM] | Ka (mouse PD-1 [2]) [M⁻¹] | Kd (mouse PD-1 [2]) [nM] | Ka (human PD-1 [3]) [M⁻¹] | Kd (human PD-1 [3]) [nM] | Ka (human PD-1 [4]) [M⁻¹] | Kd (human PD-1 [4]) [nM] | Ka (mouse PD-1 [5]) [M⁻¹] | Kd (mouse PD-1 [5]) [µM] | koff (mouse PD-1 [5]) [s⁻¹] | kon (mouse PD-1 [5]) [M⁻¹ s⁻¹] | Binder
~1 | 202000 | 4.95 | 1.18e+06 | 850 |  |  |  |  |  |  |  |  | monoclonal antibody 5C2 (antibody, IgG1, V domains shown, the two clones are reported with different SPR values; also called 5C2 anti-PD-1 antibody) VH: QVQLQQPGAELVKPGASVKVSCKASGYTFTSYWMHWVKQRPGQGLEWIGRIHPSDSDTNYNQKFKGKATLTVDKSSSTAYMQLSSLTSEDSAVYYCAPYGNYASGFAYWGQGTLVTVSA VL: DIVMTQSHKFMSTSVGDRVSITCKASQDVSTAVAWYQQKPGQSPKLLIYWASTRHTGVPDRFTGSGSGTDYTLTISSVQAEDLALYYCQQHYSTPWTFGGGTKLEIKR
 |  |  |  |  | 3.14e+06 | 319 |  |  |  |  |  |  | monoclonal antibody 4C12 (antibody, mouse IgG1, kappa, V domains shown, also called 4C12 anti-PD-1 antibody) VH: QVQLQQPGAELVKPGASVKVSCKASGYTFTSYWMHWVKQRPGQGLEWIGRIHPSDSDTNYNQKFKGKATLTVDKSSSTAYMQLSSLTSEDSAVYYCAPYGNYASGFAYWGQGTLVTVSA VL: DIVMTQSHKFMSTSVGDRVSITCKASQDVSTAVAWYQQKPGQSPKLLIYWASTRHTGVPDRFTGSGSGTDYTLTISSVQAEDLALYYCQQHYSTPWTFGGGTKLEIKR
~0.5 |  |  |  |  |  |  | 952000 | 1050 | 194000 | 5.15 | 0.0103 | 2000 | monoclonal antibody 4G9 (antibody, mouse IgG2b, kappa, V domains shown, also called 4G9 anti-PD-1 antibody) VH: QIQLVQSGPELKKPGETVKISCKASGYTFTTYGMTWVKQAPGKGLKWMGWINTYSGVPTYADDFKGRFAFSLETSASTAYLQINNLKNEDTATYFCARGGRGFAYWGQGTLVTVSA VL: DILLTQSPAILSVSPGERVSFSCRASQSIGTSIHWYQQRTNGSPRLLIKYASESISGIPSRFSGSGSGTDFTLSINSVESEDIADYYCQQSNSWPYTFGGGTKLEIKR
